In patent US20190046652A1:

How the values were obtained:
protein (GFP & Nanobody) = test: fluorescence titration, curve fitting
Peptide (C4 and C2) = test: fluorescence titration, curve fitting

- Kd (protein (GFP & Nanobody)): 1000 nM
- Kd (Peptide (C4 and C2)): 10 to 20 nM
B1: VEPEP-3a (peptide)
peptide: XKWFERWFREWPRKRR
HELM: PEPTIDE1{[ac].[bAla].K.W.F.E.R.W.F.R.E.W.P.R.K.R.R.[SCCN[*:1]]}$$$$V2.0
SMILES: CC(=O)NCCC(=O)N[C@@H](CCCCN)C(=O)N[C@@H](Cc1c[nH]c2ccccc12)C(=O)N[C@@H](Cc1ccccc1)C(=O)N[C@@H](CCC(=O)O)C(=O)N[C@@H](CCCNC(=N)N)C(=O)N[C@@H](Cc1c[nH]c2ccccc12)C(=O)N[C@@H](Cc1ccccc1)C(=O)N[C@@H](CCCNC(=N)N)C(=O)N[C@@H](CCC(=O)O)C(=O)N[C@@H](Cc1c[nH]c2ccccc12)C(=O)N1CCC[C@H]1C(=O)N[C@@H](CCCNC(=N)N)C(=O)N[C@@H](CCCCN)C(=O)N[C@@H](CCCNC(=N)N)C(=O)N[C@@H](CCCNC(=N)N)C(=O)NCCS
